Results taken from publication PMC3605701.
Where two headings read alike, the source gives them in different places.

Key:
Assay in all cases: SEC
[1] = molecular target: endogenous Xenopus Cdt1/RLF-B (Xenopus (endogenous in egg extract)) (UniProt Q9I9A7)
[2] = molecular target: endogenous Xenopus Cdt1/RLF-B (Xenopus (endogenous in egg extract)) (UniProt Q9I9A7); remark: listed apart in the source
[3] = molecular target: endogenous Xenopus Cdt1/RLF-B (Xenopus (endogenous in egg extract)) (UniProt Q9I9A7); remark: listed apart in the source

UniProt Q9I9A7, sequence (Q9I9A7 whole entry): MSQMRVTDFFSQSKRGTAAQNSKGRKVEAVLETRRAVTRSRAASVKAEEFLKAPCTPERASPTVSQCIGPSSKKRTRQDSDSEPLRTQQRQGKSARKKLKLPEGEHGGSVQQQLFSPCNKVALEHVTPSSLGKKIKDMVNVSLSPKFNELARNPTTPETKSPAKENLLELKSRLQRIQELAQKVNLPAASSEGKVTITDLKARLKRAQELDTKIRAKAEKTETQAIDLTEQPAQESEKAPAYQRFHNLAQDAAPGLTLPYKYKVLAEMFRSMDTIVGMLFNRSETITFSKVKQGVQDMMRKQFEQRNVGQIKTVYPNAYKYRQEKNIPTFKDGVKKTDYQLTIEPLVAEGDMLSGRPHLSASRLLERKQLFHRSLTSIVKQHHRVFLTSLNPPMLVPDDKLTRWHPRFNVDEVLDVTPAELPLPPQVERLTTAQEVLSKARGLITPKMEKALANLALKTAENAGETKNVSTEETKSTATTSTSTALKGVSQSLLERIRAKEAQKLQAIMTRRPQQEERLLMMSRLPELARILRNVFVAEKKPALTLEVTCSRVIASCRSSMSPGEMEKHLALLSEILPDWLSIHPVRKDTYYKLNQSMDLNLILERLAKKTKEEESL

endogenous Xenopus geminin (from UniProt O93352 1-219) (natural protein)
percent of geminin co-fractionating with Cdt1/RLF-B [1]: 24% | percent of geminin co-fractionating with Cdt1/RLF-B [2]: 45% | percent of geminin co-fractionating with Cdt1/RLF-B [3]: 61% | percent of geminin in the smaller complex without Cdt1/RLF-B [3]: > 95%
